Data from US20240101642A1 (DUKE UNIVERSITY, published 2024).

Experiments:
[1] = biological target: β2AR ligated to a non-phosphorylated version of the V2R peptide, in HDL particles (β2ARnp) (human, UniProt P07550 1-365); assay: cell-based or functional assay
[2] = biological target: T1, wild-type (WT) β2AR reconstituted in high-density lipoprotein particles (HDL-β2AR), non-phosphorylated (human, UniProt P07550 1-413); assay: cell-based or functional assay
[3] = biological target: T1, wild-type (WT) β2AR reconstituted in …; assay: in situ read-outs: [125I]-CYP/isoproterenol competition binding with HDL-β2AR and bimane fluorescence
Experimental: Bimane-labeled β2AR or β2ARpp HDLs were incubated with or without isoproterenol for 15 min at room temperature before the addition of excess transducer. […] The reactions were equilibrated for at least 30 min in black, solid-bottom 96-well microplates before fluorescence emission spectra were collected on a CLARIOstar plate reader (BMG LABTECH) in top-read mode, with excitation at 370 nm (16 nm bandpass) and emission scanning from 400 nm to 600 nm (10 nm bandpass) in 1 nm increments. Reactions were set up in duplicate in each experiment, and wells for background subtraction contained all components except the bimane-labeled HDLs. Experiments were repeated at least three times.
Radioligand Binding: All equilibrium competition radioligand binding studies were conducted in a final volume of 200 μL containing HDL-receptor, radioligand, a titration of unlabeled competitor, and the presence or absence of the indicated transducer protein. All components were diluted in assay buffer containing 20 mM HEPES, pH 7.4, 100 mM NaCl, and 1 mg/mL bovine serum albumin (BSA). […] Binding reactions proceeded at room temperature and were harvested onto glass-fiber filters (GFB) with 0.3% polyethyleneimine (PEI) using a 96-well Brandel harvester. Binding data were analyzed in GraphPad Prism using a sigmoidal dose-response curve fit, and differences in log IC50 values were analyzed by one-way ANOVA.

- log IC50 of isoproterenol (ISO), [125I]-CYP competition binding, in the presence of βarr1 (no transducer: -6.42+/-0.09) [1]: -6.49 log
- log IC50 of isoproterenol (ISO), [125I]-CYP competition binding, in the presence of βarr1 (no transducer: -6.82+/-0.03) [2]: -6.81 log
B1: β-arrestin1, minimal cysteine and truncated variant of rat βarr1 (βarr1-MC-393) (other, UniProt P29066 1-393, looked up)
chain: MGDKGTRVFKKASPNGKLTVYLGKRDFVDHIDLVDPVDGVVLVDPEYLKERRVYVTLTAAFRYGREDLDVLGLTFRKDLFVANVQSFPPAPEDKKPLTRLQERLIKKLGEHAYPFTFEIPPNLPSSVTLQPGPEDTGKAIGVDYEVKAFVAENLEEKIHKRNSVRLVIRKVQYAPERPGPQPTAETTRQFLMSDKPLHLEASLDKEIYYHGEPISVNVHVTNNTNKTVKKIKISVRQYADIVLFNTAQYKVPVAMEEADDTVAPSSTFSKVYTLTPFLANNREKRGLALDGKLKHEDTNLASSTLLREGANREILGIIVSYKVKVKLVVSRGGLLGDLASSDVAVELPFTLMHPKPKEEPPHREVPESETPVDTNLIELDTNDDDIVFEDFAR
notes: range 1-393; Expressed as GST fusion in BL21(DE3) and removed from GST by thrombin; also called βarr1-393 minimal cysteine
- binding result [3]: no binding (tested: micromolar concentrations)
